According to doi:10.1101/763847:

Biological target: single-bond CDH23 fusion protein (EC1-5/EC3-5 Fc heterodimer with one EC1-2 binding domain) (mouse)
Assay: single-molecule dynamic force spectroscopy

## single-bond PCDH15 fusion protein (EC1-5/EC3-5 Fc heterodimer with one EC1-2 binding domain) (Fc fusion)
  force sensitivity fβ (force that accelerates the off-rate e-fold): 14.3 pN
  koff: 0.62 s⁻¹
  mean lifetime (1/koff) at zero force: 1.6 s
  mean zero-force lifetime in 50 uM Ca2+: 0.87 s
  single-bond lifetime at a resting tension of 10 pN (calculated from the fit): 1 s
